Here are results for 47 sequences from the NTF2 design screens of Basanta et al. (2020).

A short description of this series: protease stability score; higher = more stable; yeast display proteolysis, trypsin and chymotrypsin.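 Note: relative to predicted unfolded state with 0 unfolded-like and 1 meaning tenfold more protease.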
“SEDEELSQKALEMVKHSSDTGDEKTTRQLMDPNYRMVIGDYELHGWELVVDFVRHARYDDLIMRRWDSQGDKIHLDGETIVNVGDKILHTRVRLIALKVNGQWKLNSVIFH”: the protease stability score came to 0.149.
For “SEDEELSRIISHLEVDLVHTGDEDTMRKLFDPNAKSHIHVGEYNIESHGREWISILWTDLGADHRELDEIQTDVQGDKVFVNMDLTMDVDGVSHRMFIQFVSVKVDGRWTIKEINVSVI”, the protease stability score was 1.81.
Next, “SEDEELTNKMRHLFLHAVRTGDETVLNRLIDPNTKLHINGVDIHGREEVRTLLREMRRHEFRTRTVEIRVIDGRVEVREDVERNGVVNGQEYETRVIIIYHAVKVDGKWVWTEIRFEER”: 0.609; “SEDEELVDHAWETYLRNLLTGDERTLADLIDPHVRVHINGVEFIGREELIKWLSEIRIRTIRVRRRSLINGRVEIIVDLELQVGDKHDRVTIYLIMDKFDGRWIHHTFSVE”: 0.41; “SEDEELVELMMKLIMELRKTGDEESIRRLADPNVRLDFNGRDNHGREHATKWIRDIVEHLRLRRFEIHNVEFQGNKAVVRSRIIMDWDGQDFHLDVIIILNKFNGRWFIHSQIVH”: 1.49.
For “SEDEELVERAIRWLESILQTGDEHVLEHFADPHVRVTVGDYDDHGRHAIHTVWRLMGVNHSEIKRKDIQVVNGVIYIHLDGVSRVNGRNFKLSIHVILEKIDGRWHVRTLHVDIK” the value was 1.05; for “SEDEELVERALQEFLEHLETGDFETLRDQVDPNARVDIDGRERIGRHDILKHWEEWRWHEIKLKHVEFQGDFVHLDGKVRITIDGKEISTHVKILVYKVNGRWLMKELRIG”, 2.27; for “SEDEELVHHIIKLWLESLVTGDERVFEELADPNVLLVVGEKTHHGRELYSEMFEILVTEIRFHEVHIRHYRHQGDKVKLDLRIDGEIDGQKTHDKAHIILHKIDGRWQLRSMIIH”, 1.33.
Next, “SEDEELVRKATEDFINMHRTGDEDELRKMMDPDDKLRIGDKEVIGREAVITWLMEWLKKMGVNHIRFHRVHLFDGKIHVDGELHIGDKEFEIHIFALKINGRWIRESEEIK”: 1.39.
Regarding “SEDEELVRRAVHRFIKLLETGDWDKIQNNVDPHVRLHVDGVDFIGRELFIHWVDRVKGMRHDIRDVRIEFHGDKAHIDMVTELEIGDKRRETRVHLVMRKINGRWIIESEEYRII”, the protease stability score was determined as 2.64.
Turning to “SEDEEMAKESVEHVIHALETGDFELFHKMADPSVQLDIDGREFIGWEEVRKHLEELRIERVHIRRLHIELINGQVRSTSDIEMDIRIGDYKIRTEVKVHIIIDKVNGRWRLRSMKIINH”, the protease stability score turned out to be 1.57.
Next, “SEDEEMARRFFEHLLHLWRTGDEEILRNLVDPDTQMQIGDKHLHGRDAVEHMIRRIDHVEVRKVRMREIRVQGDYVVIHVELDGTQEVNGKRIEQHIEFTVFVHKVDGRWIWRSIYQI”: 1.37; “SEDEEMIRELAEIFIKNWETGDEEDRWKLMDPNARIEVNGKQNHGREEDERHSKELGFKHIEVRIKRSRIVGDKAEIDGELYMRYDGKTEHVKVHIHVQIVDGRIKIVSFKIR”: 1.31.
In the case of “SEDEEMLRKILELLVESLLTGDWKTVARLADPHVRLEIGDKIFHGRERFIDHLKLLGIDHIEIRLRDMKIIGDKLDTEVEVVERVGDKEIHRDTTLHIRKVNGRWLIKKVILE”, the protease stability score was determined as 2.01.
The sequence “SEDEEMLRLAWEIHREILDTGDWKMFEELADPHTRIEVGEYINVGRETASKFILDNVRKIKNMRLHVHEHRTIDGKLEIHLRVNVNGQHRTLFLFASKFDGVWIITSVVVEIR” had a protease stability score of 1.18.
For “SEDEEMLRRIIEELNRAHKTGNWRRIAELMDPDVRLIIGDKENHGRSVLIEWLKRIDHIEVESVDIHHIDSQGDKIILHGQVHLINVYNGVEVQENRDMTVILIKVDGRWFFHSIRVR” the value was 2.56; for “SEDEEMNRLAIELLLRYMRTGDEHKLEELADPNVRIEVGDKESVGREVFLRFWMHLKKKLGIDVVEIELHEIKHYDGRVHSDTRFIMNVNGVEYRRDTEVVAHKVDGKWMLEHVHVE”, 0.92; for “SEDEEMSHNIAKMWVDALMTGDEEVLHNLADPRVRLDINGVIVHGREEFTKTMEDKLRHMRIHHINIRDIDIQGDYVRVDVRSDIFVDGKRHHVTTTLIIFKVNGRWLLHEIVVR”, 1.95.
Next, “SEDEEMSKEASEWMLEIILTGDEDSLRKLLDPDYRLHVDGQEFHGRENVVKAFMEWLQRFGIKHIHLEDTRIEVQGDKVIVHERTHVDVNGKKTETELFLIALKFDGKWMTHSIEIRYE”: 2.09; “SEDEEMTKKMVEELNHNLLTGDEERLKKQADPNAKVHQGEYNLVGMDQFVRLIKEWRIHHVDMRDIRIFDGVAFIDFEEDIEIDGVRIQTRTHIIILKVNGRWRFKQWEMR”: 0.862; “SEDEEMTRKYFERYIRWLVTGDPKLLSELVDPNVKLIYNGRHLHGREFLVEWEMEILREARLHSVHVRDVKLFNGRLRMDVEINIEIGDKKSVVESNIVALKVNGRWVLESYEVD”: 1.42.
For “SEDEEMVEKAHQIEKESLETGDEKMILDLLDPNVRIRVDGVDFHGWEHAEKLLRELRIERVNLRSFTWQGDFLRLDGELTFDYNGKKIRTKVRIYADKVDGRWFHKSHEVT” the value was 1.1.
Sequence “SEDEENAERFIQHWVHNMETGNEERLFELADPNVRLDVNGRDLIGREEFQKSMRWLINRVKNITVRVDKVTIQGNKLLVHTEVRVGDKHHETELIFLKVDGRWRIHEMRIV” gave a protease stability score of 1.52.
For “SEDEENAKFVLHELYKADETGDERKQSHMMDPNVRIIVGDKEWVGRDEVVELMHEIRVHRVHIDDFRFQGDKIEVHGTTKGEFNGKRDVYHVHWLILKIDGRWRLQSLEVR”, the protease stability score amounted to 1.11.
As to “SEDEENIKRHLEIWFTALKTGDEDTSRRMIDPNARFQVGDKHEHGMDSLVRELLREWKERGIELKSIRTTEIHIQGDKIFLNSRRDVLVNGVRIILETEIRFLKVDGRWLITEVSER”, the protease stability score is 1.22.
Sequence “SEDEENIRRIIRRFVHTFETGDEDIMRELADPHVRLIFNGQHYIGREWVVEIMSEHVKRADHTEVHIHEIHIIGDKVKVHSRLHINVDGVFRNIELRIDIMKVNGRWLIHHVEFR” came in with a protease stability score of 1.48.
The sequence “SEDEENVEKFVRELIHNSRTGDEEKFMSLLDPNTRIHVDGRTFHGMELASEALKLLGVKVFHVHRIKVVGEWAHVDGEVNFNGKDHKVSFHSRKVNGQWLLESVEIQ” registered a protease stability score of 1.22.
For “SEDEEQAEHFLRLLVEALVTGDEDKIMKLIDPNVRLEAEGHDHHGRELFVKFWMELRVKEVQIEDVKLWNGRVRFDVRFDGTFNGKRFESTSHIILTKINGKWVLKKVEMR” the value was 0.106.
Next, “SEDEEQAERFARELIEVLRTGNEELLTHLLDPNTMLRVNGVEHHGREAYLHYTREMRYHHIDIEHFDVQGDKLYLHNRMDGQVDGRRVDVRIRIQVEKVNGRWKLRQERHQ”: 0.524; “SEDEEQARHFVEMLEHVERTGDWRELEKLVDPHVIMDIDGVRHHGRHEVVDLSKKLGVDHVSLEHLEVQGDKAIIHFNMHVNGVEMHHHVDTRKVNGRWLNERIILK”: 0.488.
“SEDEEQMKRFLDHWIHFLQTGDEEESNKLADPHTRMEIGDFELHGREEYRKWFRHIIERVDHTDVRTKDSDIVNGVAIHDIEIHIEVGDKRIRRKSEMVVLKVDGRWYIQRMHFI”: the protease stability score is 0.846.
The sequence “SEDEEQSRHAFELWVRAYLTGNEEFLEKNADPNTRFIVGDKHIHGRELVFEFLKRIIDRRGMEIKDIKMRDMRVIGEKIEVDTTLHQHYNGVDFDHQIHFIMIKIDGKWKIKTIEIR” had a protease stability score of 1.43.
On to “SEDEERARRFFEELIHVLHTGDEDSLIKMADPSVRLDFNGVEAVGREEFERMFKEIWREIRLEDLTSHHIDVFNGRIRIESKSHIEVNGVQITRDELVIVTKINGKWHLHSREVK”, for which the protease stability score is 1.56.
Next, “SEDEERLRKFAEHMVNLWFTGNENELTKLIDPDTRIDIDGKELHGMELAFRVLQEHLEKLGVKHQEVRDVEIYGDKFILHWTLHVGDFTLRMEVRIVVINGRVKSMEFRTDHR”: 1.89.
Next, “SEDEERSKLIIDLWEHTQSTGDESLIERLLDPDARSHWDGVHVHGRKATKIMIERIDYVERVDFKEIRTYDGRVEIHGTIDGNFNGRRREMEVIIFVVKVDGKWRIRSIRFT”: 1.3; “SEDEERTRRISKHMLELYKTGDEDTWIKEADPNTINKIHAENHRIENHGREEVHKVLVELWERLGVKHVDLKDFDMQGEKVIIFIELRAENRIVTNIIRIVIIDGKIKSIEIELRFI”: 1.21.
For “SEDEESAKFVIQLILHSLRTGDFKIIEDLLDPNARVQINGVELHGRERVHEHWERIDHIEDVRIREVSVQGDKLVLNVERREKQGDYESSTKVIIYARKVNGKWVIDEVEVR” the value was 2.55.
In the case of “SEDEESFRHIIELMKHSLKTGDWRHLEKLLDPNARVHINGKESHGREEAVKAFRHTWEMLGIDHIEFKDEKIRMQGNKVHVHIDGVINVNGVELKSHFEHHIVKFNGRWHTEKLVIQLD”, the protease stability score was found to be 1.93.
For “SEDEESLKKFIELLFHSLHTGDWKDIHKNLDPHVRIEFNGQELHGREELIELIEELMKRFDHIHFRFRDVRIYGNKAVLETELELRVGDKSSRIDVTIIIEKVNGRWIIRRLHFK” the value was 2.48; for “SEDEESMRRAMEIWEKTMETGDERIYEELVDPDVKIEINGKNFIGREDAVKVFHKLGIKVSEIREVRIIGDKMILKGEDNINGRNVDSRLITRKINGKWIIESFSIV”, 1.22.
Next, “SEDEESSEKAAKFWLEMLRTGDWEEFERLADPNTKTHQGDKTIHGMEIVIEILMRVKGARVDTTHVRIDVQGDFVIFDVDNILNINGVHTEIRIHLRVLKVNGRWRVKELTIKHK”: 1.57; “SEDEESSKFALELMWHWEKTGDEKAISELADPHTLNHVNGVDLHGRELVIHFIHHMRIKRVHLKRIEIRMIGDYLDIRIHGRVDGEINGKDRDFHTDLVLIMRKVDGRWFVKSMSVIII”: 1.45.
Next, “SEDEETARRIVKELLHDRLTGNEDRIRELADPDVRLIIGEFHMHGMDNFLRVLRFIYHHWRIHDTQMETHEIQGDKAYNHTIIDGEFDGKRHEWQIHILVLKVNGRWRLKTLELH”: 1.84; “SEDEETIEDFVKWFVRALKTGDEDTINEMIDPHVLLHINGKDYHGRELVWRHFEELGIKHTELRHLHTYNGRVELESRLIVDGRVHKVHFHARKVNGRWTVTKVEIR”: 2.61.
Turning to “SEDEETIKRMVERWEKEFRTGDEKSYIENADPNYRLEVGDKTSIGRESVAKALDDLLRKRGVEIRDIKVHDVKIVGDFIHMDITFRGTQGDKEFDLKVILISKKVNGRWVPEHVHVH”, the protease stability score amounted to 0.789.
On to “SEDEETLSEAIRLLLESLQTGDWRTFDKLIDPHARLVIDGKELHGRDLITTLLTHWRVEHFKIRHIEVQGEKVRIEGEVRGDIDGRKKDTHVRLTAEKINGRWLTQIVIIH”, for which the protease stability score amounted to 1.98.
For “SEDEETSEELARRFSKAMKTGDFDHLVQQLDPNVRIDINGKEMIGRERFEEDMRRLNLSNIHFITRDIKVEIQGEMLHVRIDGHTRINGKDVKTHDIWIFEKIDGRWRLKEWIVHEE” the value was 0.913.
